Patent US20220411504A1 (Janssen / Centocor, published 2022)

Experiments:
[1] = biological target: HLA-G on cells (K562-HLA-G and HLA-G expressing tumor cells) (human); assay: cell-based or functional assay
[2] = biological target: T1, MHGW8 (B2m-3(G4S)-HLA-G1-G4S-Avi) (human, biotinylated (Avi tag) in the blocking assay); assay: SPR, mAb captured by goat anti-human Fc, MHGW8 flowed
T1 construct: Single chain β2m-HLA-G1; also called soluble HLA-G1 extracellular domain; recombinant biotinylated HLA-G1

Binder	Cytotoxicity, EC50 (T cell-mediated, NCI-H2009-b2m target cells, 72 hr) [1] [nM]	Kd [2] [nM]	koff [2] [s⁻¹]	kon [2] [M⁻¹ s⁻¹]
HC3B235 (bispecific antibody, human IgG1, kappa, L234A L235A) scFv: QTVVTQEPSLTVSPGGTVTLTCRSSTGAVTTSNYANWVQQKPGQAPRGLIGGTNKRAPGTPARFSGSLLGGKAALTLSGVQPEDEAEYYCALWYSNLWVFGGGTKLTVLGGSEGKSSGSGSESKSTGGSEVQLVESGGGLVQPGGSLRLSCAASGFTFNTYAMNWVRQAPGKGLEWVARIRSKYNNYATYYAASVKGRFTISRDDSKNSLYLQMNSLKTEDTAVYYCVRHGNFGNSYVSWFAYWGQGTLVTVSSEPKSSDKTHTCPPCPAPEAAGGPSVFLFPPKPKDTLMISRTPEVTCVVVSVSHEDPEVKFNWYVDGVEVHNAKTKPREEQYNSTYRVVSVLTVLHQDWLNGKEYKCKVSNKALPAPIEKTISKAKGQPREPQVYVYPPSREEMTKNQVSLTCLVKGFYPSDIAVEWESNGQPENNYKTTPPVLDSDGSFALVSKLTVDKSRWQQGNVFSCSVMHEALHNHYTQKSLSLSPG heavy: QVQLQQSGPGLVKPSQTLSLTCAISGDSVSSNRAAWNWIRQSPSRGLEWLGRTYYRSKWYNDYAVSVKSRITINPDTSKNQISLQLNSVTPEDTAVYYCARVRPGIPFDYWGQGTPVTVSSASTKGPSVFPLAPSSKSTSGGTAALGCLVKDYFPEPVTVSWNSGALTSGVHTFPAVLQSSGLYSLSSVVTVPSSSLGTQTYICNVNHKPSNTKVDKKVEPKSCDKTHTCPPCPAPEAAGGPSVFLFPPKPKDTLMISRTPEVTCVVVSVSHEDPEVKFNWYVDGVEVHNAKTKPREEQYNSTYRVVSVLTVLHQDWLNGKEYKCKVSNKALPAPIEKTISKAKGQPREPQVYVLPPSREEMTKNQVSLLCLVKGFYPSDIAVEWESNGQPENNYLTWPPVLDSDGSFFLYSKLTVDKSRWQQGNVFSCSVMHEALHNHYTQKSLSLSPG light: not shown	0.0837			
HC3B230 (bispecific antibody, human IgG1, kappa, L234A L235A) scFv: QTVVTQEPSLTVSPGGTVTLTCRSSTGAVTTSNYANWVQQKPGQAPRGLIGGTNKRAPGTPARFSGSLLGGKAALTLSGVQPEDEAEYYCALWYSNLWVFGGGTKLTVLGGSEGKSSGSGSESKSTGGSEVQLVESGGGLVQPGGSLRLSCAASGFTFNTYAMNWVRQAPGKGLEWVARIRSKYNNYATYYAASVKGRFTISRDDSKNSLYLQMNSLKTEDTAVYYCVRHGNFGNSYVSWFAYWGQGTLVTVSSEPKSSDKTHTCPPCPAPEAAGGPSVFLFPPKPKDTLMISRTPEVTCVVVSVSHEDPEVKFNWYVDGVEVHNAKTKPREEQYNSTYRVVSVLTVLHQDWLNGKEYKCKVSNKALPAPIEKTISKAKGQPREPQVYVYPPSREEMTKNQVSLTCLVKGFYPSDIAVEWESNGQPENNYKTTPPVLDSDGSFALVSKLTVDKSRWQQGNVFSCSVMHEALHNHYTQKSLSLSPG heavy: QVQLQQSGPGLVKPSQTLSLTCAISGDSVSSNSAAWNWIRQSPSRGLEWLGRTYYRSKWYNDYAVSVKSRITINPDTSKNQISLQLNSVTPEDTAVYYCAGDRRYGIVGLPFAYWGQGTLVTVSSASTKGPSVFPLAPSSKSTSGGTAALGCLVKDYFPEPVTVSWNSGALTSGVHTFPAVLQSSGLYSLSSVVTVPSSSLGTQTYICNVNHKPSNTKVDKKVEPKSCDKTHTCPPCPAPEAAGGPSVFLFPPKPKDTLMISRTPEVTCVVVSVSHEDPEVKFNWYVDGVEVHNAKTKPREEQYNSTYRVVSVLTVLHQDWLNGKEYKCKVSNKALPAPIEKTISKAKGQPREPQVYVLPPSREEMTKNQVSLLCLVKGFYPSDIAVEWESNGQPENNYLTWPPVLDSDGSFFLYSKLTVDKSRWQQGNVFSCSVMHEALHNHYTQKSLSLSPG light: not shown	0.00992			
MHGB737 (antibody, human IgG1, kappa, V domains shown, IgG1; also called GL-optimized B694) VH: EVQLLESGGGLVQPGGSLRLSCAASGFTFSSYAMHWVRQAPGKGLEWVSGISGSGFSTYYVDSVKGRFTISRDNSKNTLYLQMNSLRAEDTAVYYCAKDNLVAGTVFDYWGQGTLVTVSS VL: not shown		2.56	0.00031	200000
HC3B232 (bispecific antibody, human IgG1, kappa, L234A L235A) scFv: DIQMTQSPSSLSASVGDRVTITCRARQSIGTAIHWYQQKPGKAPKLLIKYASESISGVPSRFSGSGSGTDFTLTISSVQPEDFATYYCQQSGSWPYTFGQGTKLEIKGGSEGKSSGSGSESKSTGGSEVQLVESGGGLVKPGGSLRLSCAASGFTFSRYNMNWVRQAPGKGLEWVSSISTSSNYIYYADSVKGRFTFSRDNAKNSLDLQMSGLRAEDTAIYYCTRGWGPFDYWGQGTLVTVSSEPKSSDKTHTCPPCPAPEAAGGPSVFLFPPKPKDTLMISRTPEVTCVVVSVSHEDPEVKFNWYVDGVEVHNAKTKPREEQYNSTYRVVSVLTVLHQDWLNGKEYKCKVSNKALPAPIEKTISKAKGQPREPQVYVYPPSREEMTKNQVSLTCLVKGFYPSDIAVEWESNGQPENNYKTTPPVLDSDGSFALVSKLTVDKSRWQQGNVFSCSVMHEALHNHYTQKSLSLSPGK heavy: QVQLQQSGPGLVKPSQTLSLTCAISGDSVSSNSAAWNWIRQSPSRGLEWLGRTYYRSKWYNDYAVSVKSRITINPDTSKNQISLQLNSVTPEDTAVYYCAGDRRYGIVGLPFAYWGQGTLVTVSSASTKGPSVFPLAPSSKSTSGGTAALGCLVKDYFPEPVTVSWNSGALTSGVHTFPAVLQSSGLYSLSSVVTVPSSSLGTQTYICNVNHKPSNTKVDKKVEPKSCDKTHTCPPCPAPEAAGGPSVFLFPPKPKDTLMISRTPEVTCVVVSVSHEDPEVKFNWYVDGVEVHNAKTKPREEQYNSTYRVVSVLTVLHQDWLNGKEYKCKVSNKALPAPIEKTISKAKGQPREPQVYVLPPSREEMTKNQVSLLCLVKGFYPSDIAVEWESNGQPENNYLTWPPVLDSDGSFFLYSKLTVDKSRWQQGNVFSCSVMHEALHNHYTQKSLSLSPG light: not shown	0.00677			
HC3B231 (bispecific antibody, human IgG1, kappa, L234A L235A) scFv: QSALTQPASVSGSPGQSITISCTGTSSNIGTYKFVSWYQQHPGKAPKVMIYEVSKRPSGVSNRFSGSKSGNTASLTISGLQAEDEADYYCVSYAGSGTLLFGGGTKLTVLGGSEGKSSGSGSESKSTGGSQVQLQQSGPGLVKPSQTLSLTCAISGDSVFNNNAAWSWIRQSPSRGLEWLGRTYYRSKWLYDYAVSVKSRITINPDTSKNQFSLQLNSVTPEDTAVYYCARGYSSSFDYWGQGTLVTVSSEPKSSDKTHTCPPCPAPEAAGGPSVFLFPPKPKDTLMISRTPEVTCVVVSVSHEDPEVKFNWYVDGVEVHNAKTKPREEQYNSTYRVVSVLTVLHQDWLNGKEYKCKVSNKALPAPIEKTISKAKGQPREPQVYVYPPSREEMTKNQVSLTCLVKGFYPSDIAVEWESNGQPENNYKTTPPVLDSDGSFALVSKLTVDKSRWQQGNVFSCSVMHEALHNHYTQKSLSLSPG heavy: QVQLQQSGPGLVKPSQTLSLTCAISGDSVSSNSAAWNWIRQSPSRGLEWLGRTYYRSKWYNDYAVSVKSRITINPDTSKNQISLQLNSVTPEDTAVYYCAGDRRYGIVGLPFAYWGQGTLVTVSSASTKGPSVFPLAPSSKSTSGGTAALGCLVKDYFPEPVTVSWNSGALTSGVHTFPAVLQSSGLYSLSSVVTVPSSSLGTQTYICNVNHKPSNTKVDKKVEPKSCDKTHTCPPCPAPEAAGGPSVFLFPPKPKDTLMISRTPEVTCVVVSVSHEDPEVKFNWYVDGVEVHNAKTKPREEQYNSTYRVVSVLTVLHQDWLNGKEYKCKVSNKALPAPIEKTISKAKGQPREPQVYVLPPSREEMTKNQVSLLCLVKGFYPSDIAVEWESNGQPENNYLTWPPVLDSDGSFFLYSKLTVDKSRWQQGNVFSCSVMHEALHNHYTQKSLSLSPG light: not shown	0.126			
